Where no end group is shown, it is not given here. The star is where a group is joined. Biotin = O=C1N[C@H]2[C@H](CS[C@H]2CCCCC(=O)*)N1
B1: Comparative antibody 2 (Comp-2) scFv, 243LO326 (VH SEQ ID NO: 51 and VL SEQ ID NO: 52 of WO 2022/195028 A2), His-tagged (scFv)
scFv: QVQLVQSGAEVKKPGASVKVSCKASGYTFTSYWMHWVRQAPGQGLEWIGVIYPGNSDTRYNQKFKGRVTITRDTSASTAYMELSSLRSEDTAVYYCTRDYYSNYVYYYAMDYWGQGTTVTVSSGGGGSGGGGSGGGGSGGGGSDIVMTQTPLSLPVTPGEPASISCRSSQSLVHPNRNTYLHWYLQKPGQSPQLLIYKVSNRFSGVPDRFSGSGSGTDFTLKISRVEAEDVGVYYCSQSTHVPWTFGQGTKLEIKHHHHHH
B2: Comparative antibody 3 (Comp-3) scFv, SR_92R (Somovilla-Crespo et al. 2018), His-tagged (scFv)
scFv: EVKLEESGGGLVQPGGSMKLSCVASGFTFNKFWMNWVRQSPEKGLEWVAEIRLKSNNYATHYAESVKGRFTISRDDSKSSVYLQMNNLRAEDTGIYYCASDGWFAYWGQGTLVTVSAGGGGSGGGGSGGGGSGGGGSDVVMTQTPLSLPVSLGDQASISCRSSQSLVHSNGNTYLNWCLQRPGQSPKSLIYKVSNRFSGVPDRFSGSGSGTDFTLKISRVEAEDLGVYFCSQSTHFPRTFGGGTKLEIKRHHHHHH
B3: Comparative antibody 1 (Comp-1) scFv, SEQ ID NO: 10 from WO2023/037125 A1, His-tagged (scFv)
scFv: QVQLKESGPGLVQPSQTLSLTCTVSGFSVASYDMHWVRLPPGKGLEWMGIIWANGNTHYNSGLKSRLSISRDTSKSQVFLKMNSLQTEDTAIYFCTRGGFAYWGQGTLVTVSSGGGGSGGGGSGGGGSGGGGSDVVMTQTPVSLSVSLGGQVSISCRSSQSLVHNNGNTYLSWYLQKPGQSPQLLIYKVSNRFSGVSDRFSGSGSGTDFTLKISRVEPDDLGVYYCGQGTQYPTFGGGTKLELKHHHHHH
B4: CCR9_HUM2 scFv (humanized anti-CCR9 scFv, SEQ ID NO: 17 with C-terminal 6xHis tag) (scFv)
scFv: QVQLVQSGAEVKKPGASVKVSCTASGYSFTDYIIYWVKQAHGQSLEWMGYIDPNNYNTRYSQKFQGKVTITVDKSSTSAYMELNSLTSDDTAVYYCARDVYWGQGTTVTVSSGGGGSGGGGSGGGGSGGGGSDVVMTQTPLSLSVTPGQPASISCRSSQSLVHSNGKTYLQWYLQKPGQSPKLLIYKVSNRFSGVPDRFSGSGSGTDFTLKISRVEAEDVGVYFCAQSTHVWTFGGGTKVEIKRAHHHHHH

Assays:
naked peptide MADDYGSEST [1] = target: T1, naked peptide MADDYGSEST (human); test: ELISA naked peptide; scFv 1 ug/mL; repI
T1 peptide: MADDYGSEST
Experimental: (§1) The peptides were synthesized naked or with a N-terminal Biotin modification with a purity of >98%. All four scFvs were verified by ELISA that can be detected with anti-His antibodies. ELISA was performed for scFv-peptide binding validation. Briefly, naked peptides were coated (50 μg/mL) in 0.58M carbonate-bicarbonate buffer pH9.5, 100 μL/well, 4° C. O/N. Then after blocking (3% BSA-PBS, 300 μL/well 37° C. 1.5 h) and washing (PBS+Tween-20 0.05% v/v (0.05% PBST), wells were incubated with each purified scFv antibody at concentration of 1 μg/mL in PBS at 37° C. 1 h. After washing (0.05% PBST), wells were incubated with secondary antibodies (goat anti-His IgG-HRP) in PBS, 37° C., 30 min. After washing, and incubation with TMB substrate, reactions were stopped with 2M HCl and reading was quantified at OD450.
(§2) Then a library of overlapping peptides were designed and constructed separately to produce 16 different peptides, covering full antigen sequence of total 48 aa. Peptide size was 10aa, with 7aa overlapping and ELISA screening of scFv against each peptide was performed in duplicate. Screening was performed using naked peptides in a standard plate or biotinylated peptides using avidin-plates.

naked peptide IPNMADDYGS [2] = target: T2, naked peptide IPNMADDYGS (human); test: ELISA naked peptide; scFv 1 ug/mL; repI
T2 peptide: IPNMADDYGS
Experimental: as §1, §2

[3] = target: T3, biotin-peptide IPNMADDYGS (human); test: ELISA biotin-peptide; scFv 10 ug/mL; repI
T3 peptide: Biotin-IPNMADDYGS
Experimental: as §1
(§3) Then a library of overlapping peptides were designed and constructed separately to produce 16 different peptides, covering full antigen sequence of total 48 aa. Peptide size was 10aa, with 7aa overlapping and ELISA screening of scFv against each peptide was performed in duplicate. Screening was performed using naked peptides in a standard plate or biotinylated peptides using avidin-plates. The list of overlapping peptides was as follows:
(§4) ELISA with biotin-conjugated peptides (5 μg/mL) was performed very similar to described above with minor modifications.

[4] = target: T4, biotin-peptide DYGSESTSSM (human); test: ELISA biotin-peptide; scFv 10 ug/mL; repI
T4 peptide: Biotin-DYGSESTSSM
Experimental: as §1, §3, §4

biotin-peptide KNNVRQFAS = target: T5, biotin-peptide KNNVRQFAS (human); test: ELISA biotin-peptide; scFv 10 ug/mL; repI
T5 peptide: Biotin-KNNVRQFAS
Experimental: as §1, §3, §4

[5] = target: T6, biotin-peptide TSPIPNMADD (human); test: ELISA biotin-peptide; scFv 10 ug/mL; repI
T6 peptide: Biotin-TSPIPNMADD
Experimental: as §1, §3, §4

[6] = target: T7, biotin-peptide FNFTDFYCEK (human); test: ELISA biotin-peptide; scFv 10 ug/mL; repI
T7 peptide: Biotin-FNFTDFYCEK
Experimental: as §1, §3, §4

naked peptide SMEDYVNFNF = target: T8, naked peptide SMEDYVNFNF (human); test: ELISA naked peptide; scFv 1 ug/mL; repII
T8 peptide: SMEDYVNFNF
Experimental: as §1, §2

naked peptide TSSMEDYVNF = target: T9, naked peptide TSSMEDYVNF (human); test: ELISA naked peptide; scFv 1 ug/mL; repII
T9 peptide: TSSMEDYVNF
Experimental: as §1, §2

naked peptide MADDYGSEST [7] = target: T1, naked peptide MADDYGSEST; test: ELISA naked peptide; scFv 1 ug/mL; repII
Experimental: as §1, §2

naked peptide YVNFNFTDFY = target: T10, naked peptide YVNFNFTDFY (human); test: ELISA naked peptide; scFv 1 ug/mL; repII
T10 peptide: YVNFNFTDFY
Experimental: as §1, §2

naked peptide IPNMADDYGS [8] = target: T2, naked peptide IPNMADDYGS; test: ELISA naked peptide; scFv 1 ug/mL; repII
Experimental: as §1, §2

naked peptide TSPIPNMADD = target: T11, naked peptide TSPIPNMADD (human); test: ELISA naked peptide; scFv 1 ug/mL; repII
T11 peptide: TSPIPNMADD
Experimental: as §1, §2

naked peptide TDFYCEKNNV = target: T12, naked peptide TDFYCEKNNV (human); test: ELISA naked peptide; scFv 1 ug/mL; repII
T12 peptide: TDFYCEKNNV
Experimental: as §1, §2

naked peptide TDFTSPIPNM = target: T13, naked peptide TDFTSPIPNM (human); test: ELISA naked peptide; scFv 1 ug/mL; repII
T13 peptide: TDFTSPIPNM
Experimental: as §1, §2

naked peptide MEDYVNFNFT = target: T14, naked peptide MEDYVNFNFT (human); test: ELISA naked peptide; scFv 1 ug/mL; repII
T14 peptide: MEDYVNFNFT
Experimental: as §1, §2

naked peptide MTPTDFTSPI = target: T15, naked peptide MTPTDFTSPI (human); test: ELISA naked peptide; scFv 1 ug/mL; repII
T15 peptide: MTPTDFTSPI
Experimental: as §1, §2

naked peptide KNNVRQFAS = target: T16, naked peptide KNNVRQFAS (human); test: ELISA naked peptide; scFv 1 ug/mL; repII
T16 peptide: KNNVRQFAS
Experimental: as §1, §2

naked peptide YCEKNNVRQF = target: T17, naked peptide YCEKNNVRQF (human); test: ELISA naked peptide; scFv 1 ug/mL; repII
T17 peptide: YCEKNNVRQF
Experimental: as §1, §2

naked peptide FNFTDFYCEK = target: T18, naked peptide FNFTDFYCEK (human); test: ELISA naked peptide; scFv 1 ug/mL; repII
T18 peptide: FNFTDFYCEK
Experimental: as §1, §2

naked peptide SESTSSMEDY = target: T19, naked peptide SESTSSMEDY (human); test: ELISA naked peptide; scFv 1 ug/mL; repII
T19 peptide: SESTSSMEDY
Experimental: as §1, §2

naked peptide SSMEDYVNFN = target: T20, naked peptide SSMEDYVNFN (human); test: ELISA naked peptide; scFv 1 ug/mL; repII
T20 peptide: SSMEDYVNFN
Experimental: as §1, §2

naked peptide DYGSESTSSM = target: T21, naked peptide DYGSESTSSM (human); test: ELISA naked peptide; scFv 1 ug/mL; repII
T21 peptide: DYGSESTSSM
Experimental: as §1, §2

[9] = target: T22, Pep1-48, N-terminal domain 1 of CCR9, amino acids 1 to 48 (human); test: BLI, scFv on NTA biosensor, 1:1 global fit
T22 construct: Chemically synthesized (Genscript), purity >75%; also called CCR9 N-terminal 1-48 peptide
T22 peptide: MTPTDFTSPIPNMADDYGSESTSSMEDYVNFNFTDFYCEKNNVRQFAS
Experimental: The affinity between the CCR9-N-terminal domain 1 of CCR9 and the different scFvs was determined by Bio-Layer Interferometry (BLI), a technique that allows quantitative and qualitative measurement of biomolecular interactions in real-time. Briefly, scFv were immobilized onto NTA Biosensor (Sartorius) and quantification was performed in an Octet RED384 (Sartorius). scFv were dissolved in PBS (150 mM NaCl, 38 mM Na2HPO4, 12 mM NaH2PO4, pH 7.2) and a buffer containing 0.03% Tween-20 in PBS, pH 7.2 was used for baseline steps.

Row | Binder | OD450 (naked peptide MADDYGSEST [1]) [OD] | OD450 (naked peptide IPNMADDYGS [2]) [OD] | OD450 [3] [OD] | OD450 [4] [OD] | OD450 (biotin-peptide KNNVRQFAS) [OD] | OD450 [5] [OD] | OD450 [6] [OD] | OD450 (naked peptide SMEDYVNFNF) [OD] | OD450 (naked peptide TSSMEDYVNF) [OD] | OD450 (naked peptide MADDYGSEST [7]) [OD] | OD450 (naked peptide YVNFNFTDFY) [OD] | OD450 (naked peptide IPNMADDYGS [8]) [OD] | OD450 (naked peptide TSPIPNMADD) [OD] | OD450 (naked peptide TDFYCEKNNV) [OD] | OD450 (naked peptide TDFTSPIPNM) [OD] | OD450 (naked peptide MEDYVNFNFT) [OD] | OD450 (naked peptide MTPTDFTSPI) [OD] | OD450 (naked peptide KNNVRQFAS) [OD] | OD450 (naked peptide YCEKNNVRQF) [OD] | OD450 (naked peptide FNFTDFYCEK) [OD] | further results
1 | B1 | 0.02 | 0.02 | 0.1 | 0.09 | 0.08 | 0.04 | 1.45 | 0.03 | 0.03 | 0.02 | 0.01 | 0.02 | 0.02 | 0.03 | 0.05 | 0.04 | 0.03 | 0.04 | 0.07 | 0.03 | OD450 (naked peptide SESTSSMEDY): 0.02 OD; OD450 (naked peptide SSMEDYVNFN): 0.09 OD; OD450 (naked peptide DYGSESTSSM): 0.02 OD; Kd [9]: 61.4 nM; koff [9]: 0.0152 s⁻¹; kon [9]: 248000 M⁻¹ s⁻¹
2 | B2 | 0.02 | 0.02 | 1.59 | 0.12 | 0.09 | 1.6 | 0.09 | 0.07 | 0.03 | 0.04 | 0.01 | 0.04 | 0.04 | 0.04 | 0.08 | 0.06 | 0.04 | 0.04 | 0.03 | 0.07 | OD450 (naked peptide SESTSSMEDY): 0.04 OD; OD450 (naked peptide SSMEDYVNFN): 0.08 OD; OD450 (naked peptide DYGSESTSSM): 0.03 OD; Kd [9]: 33.1 nM; koff [9]: 0.012 s⁻¹; kon [9]: 364000 M⁻¹ s⁻¹
3 | B3 | 0.02 | 0.01 | 0.16 | 0.1 | 0.05 | 0.13 | 0.06 | 0.02 | 0.03 | 0.02 | 0.04 | 0.01 | 0.05 | 0.03 | 0.06 | 0.06 | 0.04 | 0.02 | 0.04 | 0.02 | OD450 (naked peptide SESTSSMEDY): 0.04 OD; OD450 (naked peptide SSMEDYVNFN): 0.09 OD; OD450 (naked peptide DYGSESTSSM): 0.02 OD
4 | B4 | 0.03 | 0.02 | 0.14 | 0.09 | 0.07 | 0.09 | 0.05 | 1.48 | 0.03 | 0.03 | 0.02 | 0.02 | 0.02 | 0.03 | 0.04 | 0.86 | 0.04 | 0.03 | 0.03 | 0.03 | OD450 (naked peptide SESTSSMEDY): 0.03 OD; OD450 (naked peptide SSMEDYVNFN): 0.99 OD; OD450 (naked peptide DYGSESTSSM): 0.02 OD; Kd [9]: 6.25 nM; koff [9]: 0.00168 s⁻¹; kon [9]: 268000 M⁻¹ s⁻¹
